According to the supplement of paper PMC10567573:

B1: FAM50A (parent)
chain: KKREKQREQMEQMKQRIAEENIMK
B2: RTN2 (parent)
chain: SERPLEDLRLRLDHLGWVARGTGS

Variants of: B1
Assay: protein stability index of a GFP-peptide fusion (GPS, HEK-293T) (PSI 1-6); higher = more stable
Settings: c terminus: a fixed tail appended
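Note: lentivirally expressed fusions sorted by FACS into six bins by GFP to DsRed ratio, PSI derived from sequencing read proportions per bin multiplied by bin number.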

Protein stability index, by site and new letter:
K2: N 4.94, R 5.03, F 4.45, L 3.67, S 5.01, V 4.52, Y 4.22, C 4.76, W 4.58, E 5.04, A 4.57, T 5.07, H 4.98, M 4.64, G 4.55, P 5.22, I 4.63, Q 4.75, D 4.34
K1: M 4.67, T 5.07, N 5.42, Q 5.15, C 4.67, L 4.62, A 4.71, F 4.22, G 4.9, R 4.48, H 4.95, P 5.52, Y 4.95, I 4.98, V 4.71, S 5.14, W 4.46, D 4.87, E 5.1
R3: C 4.91, H 4.65, G 5.18, A 5.17, D 5.11, F 4.61, E 5.29

Variants of: B2
Assay: as above
Settings: c terminus: a fixed tail appended

Protein stability index of substitutions, site by site:
A19: G 3.39, W 2.3, N 3.34, C 2.58, K 3.34, D 3.31, E 2.96, P 3.78, T 3.5, H 2.9, L 1.97
H14: Q 1.73, L 1.93, W 1.92, F 1.51, P 2.54, T 1.99, M 2.47, I 1.99, R 2.36
G23: F 2.52, S 2.61, H 2.6, I 3.35, M 1.87, C 2.4, L 2.44, P 3.34, E 3.99, T 3.04, A 3.6, K 3.55, N 2.98
G16: A 2.58, I 1.75, E 3.03, Y 2.9, V 1.55
